Series [1] deals with T1, TaMYB5 (GST-TaMYB5) (Triticum aestivum, UniProt A0A3B6ELG7 1-265). In words: EMSA; unlabeled N1 competes; LightShift Chemiluminescent EMSA Kit (Thermo); buffer, salt, pH and temperature not stated. The note with it: protein: recombinant; tags: N-terminal GST; label: biotin (labeled probe); blunt. For orientation: A gel shift assay detects complexes by their altered migration in electrophoresis.

In series [2] the target is T1, TaMYB5 (GST-TaMYB5). In words: competition; EMSA; unlabeled mutant probe against biotin-labeled N1; LightShift Chemiluminescent EMSA Kit (Thermo); buffer, salt, pH and temperature not stated. The note with it: protein: recombinant; tags: N-terminal GST; blunt.

T1 sequence (A0A3B6ELG7 entry or part of it): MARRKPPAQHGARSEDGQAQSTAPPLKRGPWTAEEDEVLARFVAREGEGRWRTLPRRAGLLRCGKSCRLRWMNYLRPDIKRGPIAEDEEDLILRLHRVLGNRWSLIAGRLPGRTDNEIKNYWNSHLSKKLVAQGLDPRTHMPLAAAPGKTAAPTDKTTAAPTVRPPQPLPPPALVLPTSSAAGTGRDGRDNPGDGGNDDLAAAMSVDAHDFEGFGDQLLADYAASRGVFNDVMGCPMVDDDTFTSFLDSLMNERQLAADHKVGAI

B1: 3xAC probe (AC box of TaNRL1 promoter) (dsDNA)
DNA 1: AGTCCACCTAACGCCACCTAACGCCACCTAACGCTGTT
DNA 2: AACAGCGTTAGGTGGCGTTAGGTGGCGTTAGGTGGACT
Regarding B1, in the series with TaMYB5 (GST-TaMYB5) [1], the binding result is listed as “binds”.

B2: mutant 3xAC probe (dsDNA)
DNA 1: AGTCCAAATATTGCCAAATATTGCCAAATATTGCTGTT
DNA 2: AACAGCAATATTTGGCAATATTTGGCAATATTTGGACT
Consider B2, for which the binding result in the series with TaMYB5 (GST-TaMYB5) [2] is on record as “no binding”.

Source of the values: publication PMC9445664, “A transcription factor TaMYB5 modulates leaf rolling in wheat”.
